Laboratory results as given in patent EP4707301A1 (AJOU UNIVERSITY INDUSTRY-ACADEMIC COOPERATION FOUNDATION, dated 2026).

Target: T1, human IL-5Rα expressed on the K562/IL-5Rα cell line (human, UniProt Q01344 21-420)
T1 construct: whole, on cells; also called human IL-5 receptor alpha subunit
T1 sequence (looked up): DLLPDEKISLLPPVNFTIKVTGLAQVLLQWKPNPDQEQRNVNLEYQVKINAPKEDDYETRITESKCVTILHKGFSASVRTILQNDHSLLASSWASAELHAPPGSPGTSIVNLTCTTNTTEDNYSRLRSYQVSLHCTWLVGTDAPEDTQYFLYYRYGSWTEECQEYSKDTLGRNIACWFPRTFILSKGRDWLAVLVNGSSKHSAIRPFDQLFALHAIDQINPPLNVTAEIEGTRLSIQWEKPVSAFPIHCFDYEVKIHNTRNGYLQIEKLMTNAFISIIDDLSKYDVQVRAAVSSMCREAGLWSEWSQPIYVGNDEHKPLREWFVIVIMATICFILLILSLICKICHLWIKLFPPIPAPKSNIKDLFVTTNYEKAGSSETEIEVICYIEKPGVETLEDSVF
Assay: flow cytometry on K562/IL-5Rα cells, 50 nM antibody

binding result: binds
B1: IL-5Rα(5R65)×CD3ε-scFv(L)/scFv-Fc (bispecific antibody)
chain 1: DIQMTQSPSTLSASVGDRVTITCKASQNVGTAVAWYQQKPGKAPKLLIYWASTRHTGVPDRFSGSGSGTDFTLTISSLQPDDFATYYCQQFGRYPYTFGSGTKVEVKGGGGSGGGGSGGGGSQVQLVQSGAEVKKPGSSVKVSCKASGYTFTSYWINWVRQAPGQGLEWIGHIYPNKNENYYNHKFKDKATLTVDKSTNTAYMELSSLRSEDTAVYYCTRDYYGRSYYYAMDYWGQGTTLTVSSEPKSCDKTHTCPPCPAPEFEGGPSVFLFPPKPKDTLMISRTPEVTCVVVAVSHEDPEVKFNWYVDGVEVHNAKTKPREEQYNSTYRVVSVLTVLHQDWLNGKEYKCKVSNKALPAPIEKTISKAKGQPREPRVYTLPPSRDELTKNQVSLTCLVKGFYPSDIAVEWESNGQPENNYKTTPPVLVSDGSFTLYSKLTVDKSRWQQGNVFSCSVMHEALHNHYTQKSLSLSPGK
chain 2: QAVVTQESALTTSPGETVTLTCRSSTGAVTTSNYANWVQEKPDHLFTGLIGGTNKRAPGVPARFSGSLIGDKAALTITGAQTEDEAIYFCALWYSNLWVFGGGTKLTVLGGGGSGGGGSGGGGSEVQLVESGGGLVQPKGSLKLSCAASGFTFNTYAMNWVRQAPGKGLEWVARIRSKYNNYATYYADSVKDRFTISRDDSQSILYLQMNNLKTEDTAMYYCVRHGNFGNSYVSWFAYWGQGTLVTVSSEPKSCDKTHTCPPCPAPEFEGGPSVFLFPPKPKDTLMISRTPEVTCVVVAVSHEDPEVKFNWYVDGVEVHNAKTKPREEQYNSTYRVVSVLTVLHQDWLNGKEYKCKVSNKALPAPIEKTISKAKGQPREPQVYTLPPSRDELTENQVSLTCLVKGFYPSDIAVEWESNGQPENNYKTTPPVLDSDGSFFLYSWLTVDKSRWQQGNVFSCSVMHEALHNHYTQKSLSLSPGK
notes: Control in the scFv(L)/scFv-Fc format, built with 5R65, the parent antibody of 5R65.7; also called IL-5Rα(5R65)×CD3α-scFv(L)/scFv-Fc
